# PMC8479507 (Cell Reports, 2021)
# B1: monoclonal antibody 910-30, IgG (antibody, V domains shown)
# VH: EVQLVESGGGLVQPGGSLRLSCAASGFTVSSNYMSWVRQAPGKGLEWVSLIYSGGSTYYADSVKGRFTISRHNSKNTLYLQMNSLRAEDTAVYYCARIYGDYAWGQGTLVTVSS
# VL: not shown
# Target: SARS-CoV-2 receptor-binding domain (RBD) (SARS-CoV-2 (Wuhan-Hu-1), UniProt P0DTC2)
# Assay: cell-based or functional assay
binder,measurement,value
B1,IC50 of neutralisation of authentic SARS-CoV-2; blocks RBD binding to ACE2,0.142 mg/L
